Assay results published in paper doi:10.1101/683441.

B1: HA-tagged Kir4.1 (inwardly rectifying K+ channel 4.1) (natural protein)
chain: MTSVAKVYYSQTTQTESRPLVAPGIRRRRVLTKDGRSNVRMEHIADKRFLYLKDLWTTFIDMQWRYKLLLFSATFAGTWFLFGVVWYLVAVAHGDLLELGPPANHTPCVVQVHTLTGAFLFSLESQTTIGYGFRYISEECPLAIVLLIAQLVLTTILEIFITGTFLAKIARPKKRAETIRFSQHAVVASHNGKPCLMIRVANMRKSLLIGCQVTGKLLQTHQTKEGENIRLNQVNVTFQVDTASDSPFLILPLTFYHVVDETSPLKDLPLRSGEGDFELVLILSGTVESTSATCQVRTSYLPEEILWGYEFTPAISLSASGKYIADFSLFDQVVKVASPSGLRDSTVRYGDPEKLKLEESLREQAEKEGSALSVRISNV

Target: GST-tagged Nedd4-2, full length (mouse)
Assay: pull-down

Sequence of GST-tagged Nedd4-2, full length (mouse) (Q8CFI0 whole entry): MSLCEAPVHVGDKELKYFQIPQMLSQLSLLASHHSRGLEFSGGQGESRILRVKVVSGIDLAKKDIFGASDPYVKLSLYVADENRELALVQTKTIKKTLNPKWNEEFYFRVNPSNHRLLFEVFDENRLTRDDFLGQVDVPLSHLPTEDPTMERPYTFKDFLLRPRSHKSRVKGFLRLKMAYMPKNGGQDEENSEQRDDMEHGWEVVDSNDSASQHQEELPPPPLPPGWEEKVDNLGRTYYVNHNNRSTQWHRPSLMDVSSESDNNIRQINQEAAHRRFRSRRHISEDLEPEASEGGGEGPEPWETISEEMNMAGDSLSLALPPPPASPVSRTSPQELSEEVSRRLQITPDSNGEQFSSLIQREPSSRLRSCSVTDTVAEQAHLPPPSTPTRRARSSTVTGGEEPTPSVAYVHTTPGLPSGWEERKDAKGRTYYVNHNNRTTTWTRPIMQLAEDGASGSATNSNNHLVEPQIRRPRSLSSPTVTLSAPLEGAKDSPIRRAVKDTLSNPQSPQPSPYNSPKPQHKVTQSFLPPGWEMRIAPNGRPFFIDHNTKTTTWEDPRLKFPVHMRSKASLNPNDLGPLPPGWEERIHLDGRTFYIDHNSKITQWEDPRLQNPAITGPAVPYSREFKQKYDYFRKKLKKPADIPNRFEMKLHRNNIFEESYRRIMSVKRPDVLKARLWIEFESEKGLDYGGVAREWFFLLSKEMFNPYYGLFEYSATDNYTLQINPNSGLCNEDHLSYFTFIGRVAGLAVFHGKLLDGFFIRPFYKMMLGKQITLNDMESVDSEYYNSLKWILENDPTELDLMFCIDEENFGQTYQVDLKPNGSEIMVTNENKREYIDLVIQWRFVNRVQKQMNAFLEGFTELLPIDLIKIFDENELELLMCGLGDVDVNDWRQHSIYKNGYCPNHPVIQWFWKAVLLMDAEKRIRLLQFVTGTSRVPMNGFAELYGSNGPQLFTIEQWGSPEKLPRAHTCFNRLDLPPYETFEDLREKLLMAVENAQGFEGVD

| fold bound against GST-N4-1 | Molecule |
| --- | --- |
| 2 fold | HA-tagged Connexin43 (gap junction alpha 1 protein) (from UniProt P23242 1-382) (natural protein) |
| 2 fold | B1 |
